Experiments:
[1] = target: CelA203, lichenase (β-1,3-1,4-glucanase) from Bacillus subtilis B110 (Bacillus subtilis B110); test: SEC; FPLC, Enrich SEC 650 10 × 300 column, 20 mM Tris-HCl pH 7.0, 0.5 ml/min; calibrated with HMW native protein markers (66-669); polymer and monomer peaks
[2] = target: CelA203, lichenase (β-1,3-1,4-glucanase) from Bacillus subtilis B110 (Bacillus subtilis B110); test: SDS-PAGE of unboiled sample, mass from a mobility (Rf) standard curve; purified CelA203, unboiled, 10% SDS-PAGE; tetramer band and weak monomer band; tetramer to monomers

stoichiometry N [1]: 4
stoichiometry N [2]: 4.07
Substance: CelA203, lichenase (β-1,3-1,4-glucanase) from Bacillus subtilis B110 (enzyme)

From article PMC9628817
